From PMC8238508, “Protein-based condensation mechanisms drive the assembly of RNA-rich P granules”

Legend:
MEG-3 IDR = target: T1, MEG-3 IDR (Caenorhabditis elegans, UniProt Q9TXM1 1-544); assay: filter binding; mean and SD computed from four replicate fits: 109.3, 83.64, 103.3, 107.9; Hill model; curve assigned by legend order; 50 nM RNA; 3.75 mM HEPES (stock pH 7.4), 150 mM NaCl, 0.9 mM beta-mercaptoethanol, 1.5% glycerol, 10 mM Tris HCl; 30 min, room temperature; nitrocellulose/Hybond-N+ dot blot; settings: protein: recombinant; tags: N-terminal 6xHis (pET28a); label: 3' fluorescein
T1 sequence: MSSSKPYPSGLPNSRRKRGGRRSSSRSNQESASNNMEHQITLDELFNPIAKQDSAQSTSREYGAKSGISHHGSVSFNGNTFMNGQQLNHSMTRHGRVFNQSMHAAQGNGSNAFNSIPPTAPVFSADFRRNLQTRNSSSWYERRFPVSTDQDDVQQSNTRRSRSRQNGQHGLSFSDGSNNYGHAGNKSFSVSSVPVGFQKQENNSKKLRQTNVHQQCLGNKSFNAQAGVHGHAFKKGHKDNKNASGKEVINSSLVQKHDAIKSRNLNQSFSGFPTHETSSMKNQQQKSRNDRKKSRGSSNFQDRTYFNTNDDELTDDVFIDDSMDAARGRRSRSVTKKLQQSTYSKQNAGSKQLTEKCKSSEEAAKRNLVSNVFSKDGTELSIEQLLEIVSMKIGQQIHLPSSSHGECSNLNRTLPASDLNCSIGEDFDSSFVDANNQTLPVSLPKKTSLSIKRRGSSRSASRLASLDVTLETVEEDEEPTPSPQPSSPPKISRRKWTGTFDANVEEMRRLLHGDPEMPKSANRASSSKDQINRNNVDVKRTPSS

MEG-3 (wild type) = target: T2, MEG-3 (wild type) (Caenorhabditis elegans, UniProt Q9TXM1 1-862); assay: filter binding; mean and SD computed from four replicate fits: 809.8, 808.8, 661.5, 695.9; Hill model; 50 nM RNA; 3.75 mM HEPES (stock pH 7.4), 150 mM NaCl, 0.9 mM beta-mercaptoethanol, 1.5% glycerol, 10 mM Tris HCl; 30 min, room temperature; nitrocellulose/Hybond-N+ dot blot; settings: protein: recombinant; tags: N-terminal 6xHis (pET28a); label: 3' fluorescein
T2 sequence: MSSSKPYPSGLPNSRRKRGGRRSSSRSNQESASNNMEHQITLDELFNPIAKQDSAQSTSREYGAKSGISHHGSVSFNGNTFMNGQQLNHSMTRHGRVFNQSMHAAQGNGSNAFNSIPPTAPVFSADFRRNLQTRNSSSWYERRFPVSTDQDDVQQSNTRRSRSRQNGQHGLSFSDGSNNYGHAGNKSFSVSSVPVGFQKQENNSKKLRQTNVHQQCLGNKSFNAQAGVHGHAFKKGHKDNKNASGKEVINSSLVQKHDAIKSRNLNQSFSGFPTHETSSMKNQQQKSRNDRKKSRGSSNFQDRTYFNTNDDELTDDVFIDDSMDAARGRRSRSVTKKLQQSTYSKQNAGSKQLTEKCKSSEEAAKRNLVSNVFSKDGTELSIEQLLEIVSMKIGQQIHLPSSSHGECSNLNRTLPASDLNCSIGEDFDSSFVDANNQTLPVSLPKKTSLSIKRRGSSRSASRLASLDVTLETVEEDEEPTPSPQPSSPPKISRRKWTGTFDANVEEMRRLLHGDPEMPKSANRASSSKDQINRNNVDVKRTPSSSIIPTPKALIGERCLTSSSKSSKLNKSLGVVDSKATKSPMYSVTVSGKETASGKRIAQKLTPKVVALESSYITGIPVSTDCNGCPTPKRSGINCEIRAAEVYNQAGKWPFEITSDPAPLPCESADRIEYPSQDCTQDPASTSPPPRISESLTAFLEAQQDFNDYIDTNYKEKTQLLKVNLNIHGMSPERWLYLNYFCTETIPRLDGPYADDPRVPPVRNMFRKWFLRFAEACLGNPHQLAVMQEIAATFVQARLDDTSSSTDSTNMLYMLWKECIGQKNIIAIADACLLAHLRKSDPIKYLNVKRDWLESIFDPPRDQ

UUUUUUUUUUUUUUUUUUUUUUUUUUUUUU (ssRNA) [poly-U(30) (30U)]
Kd (MEG-3 IDR): 101 ± 12 nM | Kd (MEG-3 (wild type)): 744 ± 77 nM
